The values that follow are results of earlier work, collected in paper PMC3683042, “Solution Structure and Peptide Binding of the PTB Domain from the AIDA1 Postsynaptic Signaling Scaffolding Protein” (PLoS ONE, 2013).

The target of data set [1] is APP 11 aa peptide (Homo sapiens) (UniProt P05067).
The target of data set [2] is APP 32 aa peptide (Homo sapiens) (UniProt P05067).
Data set [3] addresses APP 14 aa peptide (Homo sapiens) (UniProt P05067).

Sequence of Fe65 PTB2 (O00213 542-699): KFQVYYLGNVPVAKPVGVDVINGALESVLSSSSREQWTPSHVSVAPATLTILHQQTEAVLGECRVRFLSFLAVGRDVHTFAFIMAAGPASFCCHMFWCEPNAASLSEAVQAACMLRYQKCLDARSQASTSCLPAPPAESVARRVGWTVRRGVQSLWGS
Sequence of X11 PTB (Q02410 457-643): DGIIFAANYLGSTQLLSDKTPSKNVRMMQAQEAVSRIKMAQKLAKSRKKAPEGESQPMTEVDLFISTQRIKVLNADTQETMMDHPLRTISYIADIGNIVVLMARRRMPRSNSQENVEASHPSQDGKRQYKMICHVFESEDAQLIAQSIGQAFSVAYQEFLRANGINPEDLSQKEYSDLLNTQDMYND
Sequence of APP 32 aa peptide (Homo sapiens) (P05067 739-770): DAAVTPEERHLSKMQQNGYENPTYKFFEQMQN
Sequence of APP 11 aa peptide (Homo sapiens) (P05067 whole entry, looked up, tested part not stated): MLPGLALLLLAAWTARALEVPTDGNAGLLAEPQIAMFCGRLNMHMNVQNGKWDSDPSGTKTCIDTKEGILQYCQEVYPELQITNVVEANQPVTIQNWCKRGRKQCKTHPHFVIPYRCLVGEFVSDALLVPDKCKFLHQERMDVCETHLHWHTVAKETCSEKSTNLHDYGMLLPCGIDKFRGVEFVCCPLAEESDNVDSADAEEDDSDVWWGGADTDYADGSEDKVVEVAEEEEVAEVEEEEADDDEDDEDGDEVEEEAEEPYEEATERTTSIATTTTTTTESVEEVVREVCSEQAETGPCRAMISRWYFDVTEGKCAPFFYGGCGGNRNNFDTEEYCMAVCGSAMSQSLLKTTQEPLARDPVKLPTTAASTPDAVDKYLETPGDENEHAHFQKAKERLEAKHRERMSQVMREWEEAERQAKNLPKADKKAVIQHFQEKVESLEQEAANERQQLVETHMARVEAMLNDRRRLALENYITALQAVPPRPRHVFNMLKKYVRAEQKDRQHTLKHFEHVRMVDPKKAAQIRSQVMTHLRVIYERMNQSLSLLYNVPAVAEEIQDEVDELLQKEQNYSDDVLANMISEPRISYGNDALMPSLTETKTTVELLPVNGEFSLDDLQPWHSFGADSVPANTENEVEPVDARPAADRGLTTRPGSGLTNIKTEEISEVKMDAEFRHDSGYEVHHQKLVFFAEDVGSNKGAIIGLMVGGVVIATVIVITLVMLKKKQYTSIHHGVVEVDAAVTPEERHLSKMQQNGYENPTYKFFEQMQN

As to Fe65 PTB2 (from UniProt O00213), the Kd in data set [1] was 100000 nM; in data set [2], 200 nM. With X11 PTB (from UniProt Q02410), the Kd in data set [3] is 300 nM.
